Three molecules from patent US20120177639A1 can be followed below.

Substitutions are numbered along the chain they refer to.

B1: humanized antibody LP09026 (antibody, human IgG4 S228P, kappa, V domains shown)
VH: EVQLQQSGPEVVKPGVSVKISCKGSGYTFTDYAMHWVKQSPGKSLEWIGVISTKYGKTNYNPSFQGQATMTVDKSSSTAYMELASLKASDSAIYYCARGDEGYSWGQGTSVTVSS
VL: EIVMTQTPLSLPVSLGDRASISCRSGQSLVHSNTNTYLHWYLQKPGQSPKLLIYTVSNRFSGVPDRFSGSGSGSDFTLTISRVEAEDLGVYFCSQNTFVPWTFGGGTKLEIKR
B2: humanized antibody LP09028 (antibody, human IgG4 S228P, kappa, V domains shown)
VH: B1 VH with E101D
VL: B1 VL
B3: humanized anti-peptide Aβ antibody VH1VL1 (LP09027) (antibody, human IgG4 S228P, kappa, V domains shown)
VH: B1 VH with E101D
VL: B1 VL with T34G

The target of the first experiment is low-molecular-weight oligomers of Aβ (1-42) (UniProt P05067). Description: ELISA, antigen coated at 1 µg/ml, anti-human Fc peroxidase detection. For orientation: ELISA stands for enzyme-linked immunosorbent assay.
Turning to B1, the EC50 (in general, the midpoint of the concentration-response curve) stood at 41.4 µg/mL.
The molecule B2 had an EC50 of 21.8 µg/mL. This EC50 is about 1.9-fold lower than that of the molecule before.
B3 registered an EC50 of 14.7 µg/mL.

A further experiment deals with protofibrils prepared from the synthetic peptide Aβ (1-42) (UniProt P05067). The description is as above.
Turning to B1, the EC50 was 0.0587 µg/mL.
For the molecule B2, the EC50 was 0.0892 µg/mL.
B3: the EC50 worked out at 0.0798 µg/mL.

For another experiment the target is unchanged. In words: ELISA; ratio of the EC50 on low-molecular-weight oligomers to the EC50 on protofibrils.
For the molecule B1, the LMW/PF was 705.
Turning to B2, the LMW/PF stood at 244.
Consider B3, for which the LMW/PF was determined as 184.
